Laboratory results: publication PMC3245871 (Journal of molecular biology, 2011)
Like-named read-outs stand apart in the source and are kept apart here.

Experiments:
mAb Z13e1 (human) = test: ELISA
Z13-IL22-2 [1] = target: T1, Z13-IL22-2 (human, UniProt Q9GZX6, SLADNNT (64–70) replaced by residues WNWDDIT); test: ITC
Z13-IL22-2 [2] = target: T1, Z13-IL22-2; test: ITC; remark: listed apart in the source
Z13-IL22-1 (human) = target: T2, Z13-IL22-1 (human) (UniProt Q9GZX6); test: ITC
T2 sequence: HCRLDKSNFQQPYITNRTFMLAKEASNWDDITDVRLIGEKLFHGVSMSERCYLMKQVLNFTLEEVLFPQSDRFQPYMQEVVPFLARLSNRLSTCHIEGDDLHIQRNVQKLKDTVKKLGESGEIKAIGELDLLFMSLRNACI

Z13-IL22-2 [3] = target: T1, Z13-IL22-2; test: ITC; remark: listed apart in the source
Z13-IL22-2 [4] = target: T1, Z13-IL22-2; test: ITC; remark: listed apart in the source
WT IL-22 = WT IL-22 (human, UniProt Q9GZX6); test: ELISA
Z13-IL22-2 [5] = target: T1, Z13-IL22-2; test: ELISA

Binder: NWFDITNWLWYIKKKK [negative peptide control 94.1]
- IC50 (mAb Z13e1 (human)): > 5000 nM

B1: Fab Z13e1 (Fab, V domains shown)
VH: EVQLLESGPGLLKPSETLSLTCTVSGGSMINYYWSWIRQPPGERPQWLGHIIYGGTTKYNPSLESRITISRDISKNQFSLRLNSVTAADTAIYYCARVAIGVSGFLNYYYYMDVWGSGTAVTVSS
VL: ELTQSPATLSLSPGERATLSCRASQSVGRNLGWYQQKPGQAPRLLIYDASNRATGIPARFSGSGSGTDFTLTISSLEPEDFAVYYCQARLLLPQTFGQGTKVEIK
- dH (Z13-IL22-2 [1]): -13.9 kcal/mol
- dH (Z13-IL22-2 [2]): -7.46 kcal/mol
- Kd (Z13-IL22-1 (human)): 15000 nM
- dH (Z13-IL22-1 (human)): -7.47 kcal/mol
- Kd (Z13-IL22-2 [3]): 73 nM
- dH (Z13-IL22-2 [4]): -10.8 kcal/mol

B2: mAb Z13e1 (antibody, V domains shown)
VH: EVQLLESGPGLLKPSETLSLTCTVSGGSMINYYWSWIRQPPGERPQWLGHIIYGGTTKYNPSLESRITISRDISKNQFSLRLNSVTAADTAIYYCARVAIGVSGFLNYYYYMDVWGSGTAVTVSS
VL: ELTQSPATLSLSPGERATLSCRASQSVGRNLGWYQQKPGQAPRLLIYDASNRATGIPARFSGSGSGTDFTLTISSLEPEDFAVYYCQARLLLPQTFGQGTKVEIK
- binding result (WT IL-22): no binding
- IC50 (Z13-IL22-2 [5]): ~150 nM
